From doi:10.1101/2021.08.20.457142

B1: MKK6 D-site peptide / p38-alpha (MAPK14) L195A, full length (parent complex)
chain 1: SQSKGKKRNPGLKIPKEAFEQP
chain 2: MSQERPTFYRQELNKTVWEVPERYQNLSPVGSGAYGSVCAAFDTKTGHRVAVKKLSRPFQSIIHAKRTYRELRLLKHMKHENVIGLLDVFTPARSLEEFNDVYLVTHLMGADLNNIVKCQKLTDDHVQFLIYQILRGLKYIHSADIIHRDLKPSNLAVNEDCELKILDFGLARHTDDEMTGYVATRWYRAPEIMANWMHYNQTVDIWSVGCIMAELLTGRTLFPGTDHIDQLKLILRLVGTPGAELLKKISSESARNYIQSLAQMPKMNFANVFIGANPLAVDLLEKMLVLDSDKRITAAQALAHAYFAQYHDPDDEPVAEPYDQSFESRDFLIDEWKSLTYDEVISFVPPPLDQEEMES

Variants of: B1

Variant	screen value
chain 1 L12T	-1.06 Z-score of the enrichment rate within one screen of 711 sequences
chain 1 L12H	-1 Z-score of the enrichment rate within one screen of 711 sequences
chain 1 L12A	-1.31 Z-score of the enrichment rate within one screen of 711 sequences
chain 1 L12N	-1.37 Z-score of the enrichment rate within one screen of 711 sequences
chain 1 L12F	-0.853 Z-score of the enrichment rate within one screen of 711 sequences
chain 1 L12K	-1.3 Z-score of the enrichment rate within one screen of 711 sequences
chain 1 K6V	0.748 Z-score of the enrichment rate within one screen of 711 sequences
chain 1 K6P	0.527 Z-score of the enrichment rate within one screen of 711 sequences
chain 1 K6A	0.653 Z-score of the enrichment rate within one screen of 711 sequences
chain 1 K6D	0.0134 Z-score of the enrichment rate within one screen of 711 sequences
chain 1 K6E	-0.606 Z-score of the enrichment rate within one screen of 711 sequences
chain 1 K6R	1.9 Z-score of the enrichment rate within one screen of 711 sequences
chain 1 G11A, chain 1 K16A	0.278 Z-score of the enrichment rate within one screen of 711 sequences
chain 1 K6A, chain 1 L12A	-0.715 Z-score of the enrichment rate within one screen of 711 sequences
chain 1 L12A, chain 1 K16A	-0.931 Z-score of the enrichment rate within one screen of 711 sequences
chain 1 G5A, chain 1 K7A	0.268 Z-score of the enrichment rate within one screen of 711 sequences
chain 1 G5A, chain 1 P15A	2.65 Z-score of the enrichment rate within one screen of 711 sequences
chain 1 K7D	-0.807 Z-score of the enrichment rate within one screen of 711 sequences
chain 1 K7S	0.9 Z-score of the enrichment rate within one screen of 711 sequences
chain 1 K7V	0.633 Z-score of the enrichment rate within one screen of 711 sequences
chain 1 K7G	1.17 Z-score of the enrichment rate within one screen of 711 sequences
chain 1 K7A, chain 1 P10A	-0.226 Z-score of the enrichment rate within one screen of 711 sequences
chain 1 K13A, chain 1 I14A	-0.745 Z-score of the enrichment rate within one screen of 711 sequences

Variant	screen value
chain 1 K16T	0.151 Z-score of the enrichment rate within one screen of 711 sequences
chain 1 K16D	-0.827 Z-score of the enrichment rate within one screen of 711 sequences
chain 1 K16A	0.957 Z-score of the enrichment rate within one screen of 711 sequences
chain 1 K16Q	0.247 Z-score of the enrichment rate within one screen of 711 sequences
chain 1 K16I	1.8 Z-score of the enrichment rate within one screen of 711 sequences
chain 1 I14A, chain 1 P15A	-1.12 Z-score of the enrichment rate within one screen of 711 sequences
chain 1 I14N	-0.906 Z-score of the enrichment rate within one screen of 711 sequences
chain 1 I14G	-1.29 Z-score of the enrichment rate within one screen of 711 sequences
chain 1 I14S	-1.38 Z-score of the enrichment rate within one screen of 711 sequences
chain 1 I14P	-0.823 Z-score of the enrichment rate within one screen of 711 sequences
chain 1 I14W	-0.82 Z-score of the enrichment rate within one screen of 711 sequences
chain 1 I14T	-1.3 Z-score of the enrichment rate within one screen of 711 sequences
chain 1 K4Q	1.02 Z-score of the enrichment rate within one screen of 711 sequences
chain 1 K4F	1.08 Z-score of the enrichment rate within one screen of 711 sequences
chain 1 K4P	-0.0666 Z-score of the enrichment rate within one screen of 711 sequences
chain 1 K4H	0.888 Z-score of the enrichment rate within one screen of 711 sequences
chain 1 K4I	0.786 Z-score of the enrichment rate within one screen of 711 sequences
chain 1 K4C	0.526 Z-score of the enrichment rate within one screen of 711 sequences
chain 1 K4G	0.543 Z-score of the enrichment rate within one screen of 711 sequences
chain 1 K4V	0.981 Z-score of the enrichment rate within one screen of 711 sequences
chain 1 K4D	-0.172 Z-score of the enrichment rate within one screen of 711 sequences
chain 1 K4Y	0.747 Z-score of the enrichment rate within one screen of 711 sequences

More lines, now with the values ahead:

screen value	Variant
-0.424 Z-score of the enrichment rate within one screen of 711 sequences	chain 1 L12V
1.02 Z-score of the enrichment rate within one screen of 711 sequences	chain 1 N9A, chain 1 G11A
-0.319 Z-score of the enrichment rate within one screen of 711 sequences	chain 1 S3A, chain 1 K13A
1.98 Z-score of the enrichment rate within one screen of 711 sequences	chain 1 N9K
0.467 Z-score of the enrichment rate within one screen of 711 sequences	chain 1 N9T
1.77 Z-score of the enrichment rate within one screen of 711 sequences	chain 1 N9P
1.51 Z-score of the enrichment rate within one screen of 711 sequences	chain 1 N9H
0.752 Z-score of the enrichment rate within one screen of 711 sequences	chain 1 N9S
-0.109 Z-score of the enrichment rate within one screen of 711 sequences	chain 1 R8A, chain 1 G11A
-0.689 Z-score of the enrichment rate within one screen of 711 sequences	chain 1 N9A, chain 1 K13A
0.315 Z-score of the enrichment rate within one screen of 711 sequences	chain 1 N9A, chain 1 P10A
-0.76 Z-score of the enrichment rate within one screen of 711 sequences	chain 1 R8A, chain 1 L12A
-0.602 Z-score of the enrichment rate within one screen of 711 sequences	chain 1 R8A, chain 1 K16A
0.135 Z-score of the enrichment rate within one screen of 711 sequences	chain 1 R8S
0.157 Z-score of the enrichment rate within one screen of 711 sequences	chain 1 R8Y
0.23 Z-score of the enrichment rate within one screen of 711 sequences	chain 1 R8L
-0.5 Z-score of the enrichment rate within one screen of 711 sequences	chain 1 R8E
0.126 Z-score of the enrichment rate within one screen of 711 sequences	chain 1 R8N
2.7 Z-score of the enrichment rate within one screen of 711 sequences	chain 1 S3A, chain 1 P15A
0.502 Z-score of the enrichment rate within one screen of 711 sequences	chain 1 P10M
0.723 Z-score of the enrichment rate within one screen of 711 sequences	chain 1 P10Y
0.201 Z-score of the enrichment rate within one screen of 711 sequences	chain 1 P10C
0.158 Z-score of the enrichment rate within one screen of 711 sequences	chain 1 P10S
1.79 Z-score of the enrichment rate within one screen of 711 sequences	chain 1 P10L
0.418 Z-score of the enrichment rate within one screen of 711 sequences	chain 1 P15E
0.93 Z-score of the enrichment rate within one screen of 711 sequences	chain 1 P15Y
1.68 Z-score of the enrichment rate within one screen of 711 sequences	chain 1 P15R
1.24 Z-score of the enrichment rate within one screen of 711 sequences	chain 1 P15T
0.848 Z-score of the enrichment rate within one screen of 711 sequences	chain 1 P15G
1.65 Z-score of the enrichment rate within one screen of 711 sequences	chain 1 P15K
